Molecular target: T1, RamA (Klebsiella pneumoniae (Ecl8?)) (UniProt Q48413)
T1 sequence: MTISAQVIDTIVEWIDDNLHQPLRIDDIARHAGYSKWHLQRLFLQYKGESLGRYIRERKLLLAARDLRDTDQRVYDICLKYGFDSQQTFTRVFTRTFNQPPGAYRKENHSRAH
Test: EMSA

| Sequence | binding |
| --- | --- |
| GCACTTCAACTAAATTCGCCTGAGTTTGGCTCATAAAATCATCCTTACTAAACACCTGACGGGCAAGCATGGCCCTTTCTTGCGCCACAATCACAACATTTTTACAGAATCTTACCTGCACAGGTTAGCGAAAGCTGGCATTTGTTTTACTTTTGGCACACATAAAGTCAAAATTAAGAATTCGTTACGCTGCGTAGGGATAACCCAGCGAGGCGACGATTATACCTGAAG (double strand) [yrbF promoter] | binds |
| GGAAACGATTGCCAGGACTGGTGCTTCAGGCCTGATAAACCGCTCACTTTGTTAACAACAGTGCTCAGATTTTAATGCATTATTAAAGATGCAGCTTTTCTGGCTGGCGCGTCCAGGATGCGCCAGGCTGGAAGAAGACCTTCAATCTGATGACGATGCTGTAGCAAAGTGAGCCTTTATGACTGACAAATCTGTTCCATTCTCGGTGCTCGATCTGGCGCCGATCCCGCAAGGATCTTCTGCCAAAGAAGCCTTTACCCA (double strand) [yhbW promoter] | binds |
| GCCTGCATAATCGTTTCCTGACAAAAAAGGGTATTGTGACCGATAGTCGCCCACTTGCAAAACCTCTCTGCGCGGTTGGTCATTACCCACCGCACAAATGGGACGTGTTTTTTCGGCTGAAATCGTTACAATCAGGAAATCATACTATCTGGAGTGAACCATGTTAGAGCTTTTGAAAAGTCTGGTTTTTGCGGTCATCATGGTACCGGTGGTGATGGCGGTCATCCTGGGACTGATTTACGGTCTTGGCGAAGTGTTCAAC (double strand) [ybhT promoter] | binds |
